Reference: patent US20210246204A1 (Alector, published 2021)

B1: S7AB-H8.14 (antibody, V domains shown)
VH: QVQLVQSGAEVKKPGASVKVSCKASGYAFTAAWMNWVRQAPGQGLEWIGRIFPGLGHTNYAQKFQGRATLTEDTSTSTAYMELSSLRSEDTAVYYCARDYSDYYFDYWGQGTLVTVSS
VL: DIQMTQSPSSLSASVGDRVTITCRGSQDINTYLNWYQQKPGKAPKLLIYYTSRLHSGVPSRFSGSGSGTDYTLTISSLQPEDFATYYCQGGNTLPWTFGQGTKLEIK
B2: S7AB-H8.19 (antibody, V domains shown)
VH: QVQLVQSGAEVKKPGASVKVSCKASGYAFTAAWMNWVRQAPGQGLEWIGRIFPGLGHTNYAQKFQGRATLTEDTSTSTAYMELSSLRSEDTAVYYCARDYSDYYFDYWGQGTLVTVSS
VL: DIQMTQSPSSLSASVGDRVTITCRGSQDTNTYLNWYQQKPGKAPKLLIYYTSRLHSGVPSRFSGSGSGTDYTLTISSLQPEDFATYYCQQGNTLPWTFGQGTKLEIK
B3: S7AB-H8.21 (antibody, V domains shown)
VH: QVQLVQSGAEVKKPGASVKVSCKASGYAFTETWMNWVRQAPGQGLEWIGRIFPGLGHTNYAQKFQGRATLTEDTSTSTAYMELSSLRSEDTAVYYCARDYSDYYFDYWGQGTLVTVSS
VL: DIQMTQSPSSLSASVGDRVTITCRASEDINTYLNWYQQKPGKAPKLLIYYTSRLHSGVPSRFSGSGSGTDYTLTISSLQPEDFATYYCQQGGTLPWTFGQGTKLEIK
B4: S7AB-H8.26 (antibody, V domains shown)
VH: QVQLVQSGAEVKKPGASVKVSCKASGYAFTETWMNWVRQAPGQGLEWIGRIFPGLGHTNYAQKFQGRATLTEDTSTSTAYMELSSLRSEDTAVYYCARDYSDYYFDYWGQGTLVTVSS
VL: DIQMTQSPSSLSASVGDRVTITCRASQDANTYLNWYQQKPGKAPKLLIYYTSRLHSGVPSRFSGSGSGTDYTLTISSLQPEDFATYYCQQGNLLPWTFGQGTKLEIK
B5: S7AB-H8.20 (antibody, V domains shown)
VH: QVQLVQSGAEVKKPGASVKVSCKASGYAFTEAWMNWVRQAPGQGLEWIGRIFPGYGHTNYAQKFQGRATLTEDTSTSTAYMELSSLRSEDTAVYYCARDYSDYYFDYWGQGTLVTVSS
VL: DIQMTQSPSSLSASVGDRVTITCRGSQDTNTYLNWYQQKPGKAPKLLIYYTSRLHSGVPSRFSGSGSGTDYTLTISSLQPEDFATYYCQQGNTLPWTFGQGTKLEIK
B6: S7AB-H8.16 (antibody, V domains shown)
VH: QVQLVQSGAEVKKPGASVKVSCKASGYAFTETWMNWVRQAPGQGLEWIGRIFPGLGHTNYAQKFQGRATLTEDTSTSTAYMELSSLRSEDTAVYYCARDYSDYYFDYWGQGTLVTVSS
VL: DIQMTQSPSSLSASVGDRVTITCRGSQDTNTYLNWYQQKPGKAPKLLIYYTSRLHSGVPSRFSGSGSGTDYTLTISSLQPEDFATYYCQQGNTLPWTFGQGTKLEIK
B7: S7AB-H8.15 (antibody, V domains shown)
VH: QVQLVQSGAEVKKPGASVKVSCKASGYAFTEAWMNWVRQAPGQGLEWIGRIFPGYGHTNYAQKFQGRATLTEDTSTSTAYMELSSLRSEDTAVYYCARDYSDYYFDYWGQGTLVTVSS
VL: DIQMTQSPSSLSASVGDRVTITCRGSQDINTYLNWYQQKPGKAPKLLIYYTSRLHSGVPSRFSGSGSGTDYTLTISSLQPEDFATYYCQGGNTLPWTFGQGTKLEIK
B8: S7AB-H8.17 (antibody, V domains shown)
VH: QVQLVQSGAEVKKPGASVKVSCKASGYAFTMAWMNWVRQAPGQGLEWIGRIFPGYGHTNYAQKFQGRATLTEDTSTSTAYMELSSLRSEDTAVYYCARDYSDYYFDYWGQGTLVTVSS
VL: DIQMTQSPSSLSASVGDRVTITCRGSQDTNTYLNWYQQKPGKAPKLLIYYTSRLHSGVPSRFSGSGSGTDYTLTISSLQPEDFATYYCQQGNTLPWTFGQGTKLEIK
B9: S7AB-H8.24 (antibody, V domains shown)
VH: QVQLVQSGAEVKKPGASVKVSCKASGYAFTAAWMNWVRQAPGQGLEWIGRIFPGLGHTNYAQKFQGRATLTEDTSTSTAYMELSSLRSEDTAVYYCARDYSDYYFDYWGQGTLVTVSS
VL: DIQMTQSPSSLSASVGDRVTITCRASEDINTYLNWYQQKPGKAPKLLIYYTSRLHSGVPSRFSGSGSGTDYTLTISSLQPEDFATYYCQQGGTLPWTFGQGTKLEIK
B10: S7AB-H8.25 (antibody, V domains shown)
VH: QVQLVQSGAEVKKPGASVKVSCKASGYAFTEAWMNWVRQAPGQGLEWIGRIFPGYGHTNYAQKFQGRATLTEDTSTSTAYMELSSLRSEDTAVYYCARDYSDYYFDYWGQGTLVTVSS
VL: DIQMTQSPSSLSASVGDRVTITCRASEDINTYLNWYQQKPGKAPKLLIYYTSRLHSGVPSRFSGSGSGTDYTLTISSLQPEDFATYYCQQGGTLPWTFGQGTKLEIK
B11: S7AB-H8.22 (antibody, V domains shown)
VH: QVQLVQSGAEVKKPGASVKVSCKASGYAFTMAWMNWVRQAPGQGLEWIGRIFPGYGHTNYAQKFQGRATLTEDTSTSTAYMELSSLRSEDTAVYYCARDYSDYYFDYWGQGTLVTVSS
VL: DIQMTQSPSSLSASVGDRVTITCRASEDINTYLNWYQQKPGKAPKLLIYYTSRLHSGVPSRFSGSGSGTDYTLTISSLQPEDFATYYCQQGGTLPWTFGQGTKLEIK
B12: S7AB-H8.18 (antibody, V domains shown)
VH: QVQLVQSGAEVKKPGASVKVSCKASGYAFTGYWMNWVRQAPGQGLEWIGRIFPGLGHTNYAQKFQGRATLTEDTSTSTAYMELSSLRSEDTAVYYCARDYSDYYFDYWGQGTLVTVSS
VL: DIQMTQSPSSLSASVGDRVTITCRGSQDTNTYLNWYQQKPGKAPKLLIYYTSRLHSGVPSRFSGSGSGTDYTLTISSLQPEDFATYYCQQGNTLPWTFGQGTKLEIK
B13: S7AB-H8.23 (antibody, V domains shown)
VH: QVQLVQSGAEVKKPGASVKVSCKASGYAFTGYWMNWVRQAPGQGLEWIGRIFPGLGHTNYAQKFQGRATLTEDTSTSTAYMELSSLRSEDTAVYYCARDYSDYYFDYWGQGTLVTVSS
VL: DIQMTQSPSSLSASVGDRVTITCRASEDINTYLNWYQQKPGKAPKLLIYYTSRLHSGVPSRFSGSGSGTDYTLTISSLQPEDFATYYCQQGGTLPWTFGQGTKLEIK

Key:
[1] = target: T1, histidine-tagged human Siglec-7 (NovoProtein) (human, UniProt Q9Y286 19-353); assay: BLI, antibody captured
T1 construct: Bought protein; also called recombinant human Siglec-7; recombinant Siglec-7; not shown: histidine tag
T1 sequence (Q9Y286 19-353 limits assumed): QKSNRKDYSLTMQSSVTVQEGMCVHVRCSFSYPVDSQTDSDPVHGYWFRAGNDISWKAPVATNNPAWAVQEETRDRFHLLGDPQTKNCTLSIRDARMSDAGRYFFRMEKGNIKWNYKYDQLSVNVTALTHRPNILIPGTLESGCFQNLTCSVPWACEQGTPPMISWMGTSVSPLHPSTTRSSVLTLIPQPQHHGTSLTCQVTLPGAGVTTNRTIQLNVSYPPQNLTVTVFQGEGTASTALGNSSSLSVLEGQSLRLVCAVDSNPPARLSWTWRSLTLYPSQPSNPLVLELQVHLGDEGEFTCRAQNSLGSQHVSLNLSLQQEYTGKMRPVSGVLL
Method: In this assay, the humanized antibodies were compared directly to S7AB. Briefly, the antibodies were captured on anti-human or anti-mouse IgG Fc Biosensors (Pall ForteBio). Varying concentrations (0-100 nM) of histidine-tagged human Siglec-7 (NovoProtein) were then bound to the captured anti-Siglec-7 surface (200 s association time, 900 s dissociation time). Multi-concentration kinetic analysis was performed using a 1:1 interaction model to extract association and dissociation rate constants (kₐ and kd, respectively) for each antibody. Apparent affinity constants (KD) were calculated from the ratio kd/kₐ.
The affinities of S7AB-H8 and variants S7AB-H8.1 through S7AB-H8.45 for human Siglec-7 were measured by BioLayer Interferometry according to the method described in Example 1 above.

[2] = target: human Siglec-7 on primary human monocyte-derived dendritic cells (human, UniProt Q9Y286 19-467); assay: cell-based or functional assay
Chain of human Siglec-7 on primary human monocyte-derived dendritic cells (Q9Y286 19-467): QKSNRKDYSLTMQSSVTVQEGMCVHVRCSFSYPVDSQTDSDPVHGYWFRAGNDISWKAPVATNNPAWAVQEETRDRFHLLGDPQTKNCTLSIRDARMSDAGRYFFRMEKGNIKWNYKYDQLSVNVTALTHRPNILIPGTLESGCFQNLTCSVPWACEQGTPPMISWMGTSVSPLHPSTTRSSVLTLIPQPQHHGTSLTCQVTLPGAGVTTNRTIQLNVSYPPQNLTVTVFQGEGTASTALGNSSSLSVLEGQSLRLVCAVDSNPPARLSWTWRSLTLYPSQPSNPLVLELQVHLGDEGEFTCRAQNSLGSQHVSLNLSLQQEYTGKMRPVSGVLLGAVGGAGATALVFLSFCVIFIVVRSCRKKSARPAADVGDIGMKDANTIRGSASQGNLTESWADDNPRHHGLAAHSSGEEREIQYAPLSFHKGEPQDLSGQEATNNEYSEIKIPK

| Binder | Kd [1] | fold improvement over S7AB-H8 [1] | koff [1] | kon [1] | Fold increase in potency compared to AB-H8 [2] | Fold increase in potency compared to Chimeric Ab [2] | Maximal downregulation (% Siglec-7 remaining) [2] | Receptor downregulation, (EC50) (pM) [2] |
| --- | --- | --- | --- | --- | --- | --- | --- | --- |
| B1 | 54.1 nM | 0.02 fold | 0.000176 s⁻¹ | 3260 M⁻¹ s⁻¹ | 0.2 fold | 0.5 fold | 45.7% | 1950 pM |
| B2 | 0.898 nM | 1.2 fold | 0.000112 s⁻¹ | 125000 M⁻¹ s⁻¹ | 3.5 fold | 10.5 fold | 6.7% | 97.8 pM |
| B3 | 0.936 nM | 1.1 fold | 0.000125 s⁻¹ | 133000 M⁻¹ s⁻¹ | 2.2 fold | 6.8 fold | 13.6% | 152 pM |
| B4 | 0.397 nM | 2.6 fold | 5.9e-05 s⁻¹ | 149000 M⁻¹ s⁻¹ | 1.9 fold | 5.7 fold | 9.8% | 180 pM |
| B5 | 1.81 nM | 0.6 fold | 0.000145 s⁻¹ | 79900 M⁻¹ s⁻¹ | 1.4 fold | 4.2 fold | 10.6% | 245 pM |
| B6 | 2.53 nM | 0.4 fold | 0.000165 s⁻¹ | 65400 M⁻¹ s⁻¹ | 1 fold | 2.9 fold | 10.1% | 348 pM |
| B7 | 2.6 nM | 0.4 fold | 0.000607 s⁻¹ | 233000 M⁻¹ s⁻¹ |  |  | 85% | > 3000 pM |
| B8 | 0.814 nM | 1.3 fold | 0.000104 s⁻¹ | 128000 M⁻¹ s⁻¹ | 2.9 fold | 8.8 fold | 8% | 116 pM |
| B9 | 0.0368 nM | 28.5 fold | 4.81e-06 s⁻¹ | 131000 M⁻¹ s⁻¹ | 2.6 fold | 8 fold | 4.3% | 129 pM |
| B10 | 0.265 nM | 4 fold | 2.77e-05 s⁻¹ | 104000 M⁻¹ s⁻¹ | 1.8 fold | 5.4 fold | 9.2% | 189 pM |
| B11 | < 0.001 nM | > 1000 fold | < 1e-07 s⁻¹ | 135000 M⁻¹ s⁻¹ | 3.1 fold | 9.4 fold | 3.9% | 109 pM |
| B12 | 0.712 nM | 1.5 fold | 0.000142 s⁻¹ | 199000 M⁻¹ s⁻¹ | 5 fold | 15.2 fold | 18.9% | 67.3 pM |
| B13 | 0.235 nM | 4.5 fold | 5.53e-05 s⁻¹ | 235000 M⁻¹ s⁻¹ | 3.8 fold | 11.4 fold | 17.2% | 90.1 pM |
